In patent US20240377414A1 (BELLYLABS, published 2024):

How the values were obtained:
[1] = target: T1, canine relaxin (mature relaxin in pregnant dog serum) (dog, UniProt Q9TRM8 154-177; Q9TRM8 26-60); assay: hybridoma screen for activity against relaxin-positive pregnant dog serum
T1 construct: mature; Endogenous relaxin in serum, plasma or whole blood of pregnant dogs; also called dog relaxin
Procedure: Monoclonal IgG antibodies were prepared by immunizing mice with preprorelaxin (Bioraytec Ltd., Zhuhai, China) using standard laboratory methods known in the art. Anti-preprorelaxin antibody expressing hybridomas were derived by fusing myeloma cells with splenocytes from the immunized mice. The antibodies produced by hybridoma clonal cell lines were initially screened for activity against relaxin-positive pregnant dog serum. Relaxin positivity of the serum was confirmed using the FASTest RELAXIN in vitro test (Diagnostik Megacor, Hörbranz, Austria). The serum contains mature relaxin as preprorelaxin is not present in serum, and so the selected antibodies are reactive against relaxin and not only preprorelaxin.

[2] = target: T1, canine relaxin (mature relaxin in …); assay: hybridoma screen against relaxin-positive dog serum

T1 sequence (Q9TRM8 154-177 limits assumed, chain 1 of 2): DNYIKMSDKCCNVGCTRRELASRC
T1 sequence (Q9TRM8 26-60 limits assumed, chain 2 of 2): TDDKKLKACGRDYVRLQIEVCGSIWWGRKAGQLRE

Row | binding result [1] | binding result [2] | Binder
1 | binds | – | monoclonal antibody 2H7 (antibody, V domains shown, Mouse monoclonal IgG from hybridoma; Mostly used as capture antibody on the test line; gold-labelled as detection antibody in the pair 2F10-2H7; also called capture antibody; hybridoma CCTCC C2021209) VH: DVQLQESGPDLVKPSQSLSLTCTVTGYSITSGYSWHWIRQFPGNKLEWMGYIHYSGRTNYNPSLKSRISITRDTSKNQFFLQLNSVTTEDTATYYCARSMDYWGQGTSVSVSS VL: DIKMTQSPSSMYASLGERVTITCKASQDIKTYLNWYQQKPWKSPKTLIYYATSLADGVPSRFSGSGSGQDFSLTISSLESDDTATYFCLQHGESPPTFGGGTKLEIK
2 | – | binds | monoclonal antibody 9B8 (antibody, V domains shown, also called second detection antibody; hybridoma CCTCC C2021211) VH: EVKLEESGGGLVQPGGSMKLSCAASGFTFSDAWMDWVRRSPEKGLEWIAEIRSKAKNHITYYAESVKGRFTISRDDSKSSVYLQMNSLRTEDSGIYYCTGGFAYWGQGTLVTVSA VL: DAVMTQNPLSLPVSLGDQASISCRSSQSLEKSNGNTYLNWYLQKPGQSPQLLIYRVSNRFSGVPDRISGGGSGTDFTLKISRVEAEDLGVYFCVQVSHVPFTFGSGTKLEIK
3 | – | binds | monoclonal antibody 2A4 (antibody, V domains shown, also called first detection antibody; hybridoma CCTCC C2021210) VH: AVNLEESGGGLVLPGGSMKLSCTASGFTFSDAWMDWVRRSPEKGLEWLAEIRDETNNHITYYAESVKVRFIISRDDSKSSVYLQMNNLRPEDTGIYYCAAGFAYWGQGTLVTVSA VL: DAVMTQTPLSLSVSLGDQASISCRSSQSLEKSNGKTYLNWYLQKPGQSPQLLIYRVSNRFSGVLDRFSGSGSGTDFTLKISRVEAEDLGLYFCLQVSHVPFTFGSGTKLEIK
